# Source: article PMC6179307 (2018)
# B1: RPT-6::VC155 [C. elegans] / ELT-2::VN173 [C. elegans] (parent complex)
# chain 1: MAPPASTASSADPSKPTAQKLTEESDEKTLRKYFSTKVDDAQQKVADKSQNVRRLQAQRNELNTKVRMLKEELQQLHEQGSYVGEVSKAMDKKKVLVKVHPEGKYVVDVDKSIDINSLNTGARVALRADSYALHKLLPNKVDPLVSLMMVEKVPDSTYEMVGGLDKQIKEIKEVIELPVKHPELFDALGIAQPKGVLLFGPPGTGKTLLARAVAHHTECTFIRVSGSELVQKFIGEGARMVRELFVMAREHAPSIIFMDEIDSIGSSRVEGSSGGDSEVQRTMLELLNQLDGFEATKNIKVIMATNRIDILDPALLRPGRIDRKIEFPAPDEKARADILKIHSRKMNLMRGINMAKIAEQIPGASGAEVKSVCTEAGMFALRERRIHVTQEDFEMAVGKVMQKDSEKNMSIKKLWK
# chain 2: MDNNYNDNVNGWAEMEPSQPMGGLRLPTQNMDPPEQNNESQLSELPRMKIDNDYASPIERQSVITSGTNNYEPKVETVTSFFHTGIDYSNFGMLDQTTMQPFYPLYSGIPVNTLGTFSGYTNSIYDKPSLYDPSIPTINIPSTYPTVAPTYECVKCSQSCGAGMKAVNGGMMCVNCSTPKTTYSPPVAYSTSLGQPPILEIPSEQPTAKIAKQSSKKSSSSNRGSNGSASRRQGLVCSNCNGTNTTLWRRNAEGDPVCNACGLYFKLHHIPRPTSMKKEGALQTRKRKSKSGDSSTPSTSRARERKFERASSSTEKAQRSSNRRAGSAKADRELSTAAVAAATATYVSHADLYPVSSAAVTLPDQTYSNYYQWNTAATAGLMMVPNDQNYVYAATNYQTGLRPADNIQVHVMPVQDDETKAAARDLEAVDGDS
# Variants of: B1
# Test: bimolecular fluorescence complementation (BiFC) in vivo, quantified with Copas Biosort; three independent experiments combined, minimum of 399 animals in each case; fluorescence observed twelve hours after heat shock; parent: 750; read off a plot
row,Variant,response [Fluorescence/TOF]
1,chain 1 K206R,~390
